Like-named read-outs stand apart in the source and are kept apart here.
T1: Human-TNFR2-His (manufacturer: SINO, CAT: 10417-H08H) (human, UniProt P20333 23-257)
T1 construct: Bought protein; also called human TNFR2 protein; TNFR2 protein; not shown: His tag
T1 sequence (looked up): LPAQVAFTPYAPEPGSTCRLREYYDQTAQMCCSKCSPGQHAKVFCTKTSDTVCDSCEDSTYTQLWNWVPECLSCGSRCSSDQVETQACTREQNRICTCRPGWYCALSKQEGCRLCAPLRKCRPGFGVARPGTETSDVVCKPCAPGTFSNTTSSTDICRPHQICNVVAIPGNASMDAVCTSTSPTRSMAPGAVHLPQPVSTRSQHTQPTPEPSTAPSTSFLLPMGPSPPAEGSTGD

T2: Human-B7H3 His (manufacturer: Acro, CAT: TB73-H52E2) (human, UniProt Q5ZPR3-2 29-245)
T2 construct: also called human B7H3 protein; B7H3 protein; not shown: His tag
T2 sequence (looked up): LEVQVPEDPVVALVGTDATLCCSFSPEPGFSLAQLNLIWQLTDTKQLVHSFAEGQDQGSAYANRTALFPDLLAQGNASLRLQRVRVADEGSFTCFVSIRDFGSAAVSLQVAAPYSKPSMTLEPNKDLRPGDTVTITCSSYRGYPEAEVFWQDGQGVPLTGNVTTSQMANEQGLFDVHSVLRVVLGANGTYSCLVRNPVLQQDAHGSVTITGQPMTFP


How the values were obtained:
[1] = target: T1, Human-TNFR2-His (manufacturer: SINO, …); assay: bridging ELISA: Human-B7H3 Fc coated (0.5 µg/mL), antibody titrated, then Human-TNFR2-His (0.5 µg/mL), HRP-labeled anti-His detection, OD450 (Example 4); the signal needs both proteins bound at once
Procedure: Human-B7H3 Fc (manufacturer: Acro, CAT: B73-H5253, LOT: 2053b-201XF1-UD) was diluted to 0.5 μg/mL with a coating solution (1×PBS, pH7.4) and coated into a 96-well ELISA plate at 100 μL/well at 4° C. overnight. The coating solution was poured off. Each well was washed with 1×PBST at 300 μL, washed 4 times with a plate washer, and patted dry on a flat paper. It was blocked with 3% skim milk powder at 300 μL/well, and incubated at 37° C. for 1 h. The blocking solution was poured off, washed 4 times with a plate washer, and patted dry on a flat paper. […] Starting at 300 nM, which was used as the initial concentration for 3-fold dilution, a total of 8 gradients were diluted, and a blank well was set up, and only diluent was added. It was incubated at 37° C. for 1 h at 100 μL/well. The liquid in the well was discarded, washed 4 times with a plate washer, and patted dry on a flat paper. Human-TNFR2-His (manufacturer: Sino, CAT: 10417-H08H, LOT: LC12SE2902) was diluted to 0.5 μg/mL, 100 μL was added to each well, and incubated at room temperature for 1 h. The plate was washed 3 times with PBST, and then the HRP-labeled his antibody was diluted with sample diluent at 1:10000, 100 μL was added to each well, and incubated at room temperature for 1 h. It was washed 6 times with a plate washer, and patted dry on a flat paper. TMB color developing solution was added at 100 μL/well, and wrapped with aluminum foil. Color development was performed at 37° C. in the dark for 8 min. Termination solution 1M HCl was added to terminate the color development reaction at 100 μL/well. Readings were taken at 450 nm on an ELISA reader.

[2] = target: T2, Human-B7H3 His (manufacturer: Acro, …); assay: ELISA: Human-B7H3 His coated (0.3 µg/mL), antibody titrated, goat anti-human IgG Fc detection, OD450 (Example 3)
Procedure: (§1) Human-B7H3 His (manufacturer: Acro, CAT: TB73-H52E2, LOT: 2052-21AXF1-YS) was diluted to 0.3 μg/mL with a coating solution (1×PBS, pH7.4), and coated into a 96-well ELISA plate at 100 μL/well overnight at 4° C. The coating solution was poured off. Each well was washed with 1×PBST at 300 μL, washed 4 times with a plate washer, and patted dry on a flat paper. It was blocked with 3% skim milk powder at 300 μL/well, and incubated at 37° C. for 1 h. The blocking solution was poured off, washed 4 times with a plate washer, and patted dry on a flat paper. Negative control and positive control were set up. […] The variable region of the antibody sequence of the positive control consists of SEQ ID NO: 1 and SEQ ID NO: 5, with the constant region of human IgG1 added (SEQ ID NO: 85 and SEQ ID NO: 86). The positive control and antibody were diluted to 10 μg/mL with 3% skim milk powder as the starting concentration, and then diluted by 3-fold gradient (11 gradients in total). A blank well was set up and only the diluent was added. It was incubated at 37° C. for 1 h at 100 μL/well. The liquid in the well was discarded, washed 4 times with a plate washer, and patted dry on a flat paper. Goat anti-human IgG Fc was diluted with 3% skim milk powder at 1:20000, and incubated at 37° C. for 1 h at 100 μL/well. It was washed 6 times with a plate washer, and patted dry on a flat paper. TMB color developing solution was added at 100 μL/well, and wrapped with aluminum foil. Color development was performed at 37° C. in the dark for 8 min. Termination solution 1M HCl was added to terminate the color development reaction at 100 μL/well. Readings were taken at 450 nm on an ELISA reader.

[3] = target: T2, Human-B7H3 His (manufacturer: Acro, …); assay: as above; remark: listed apart in the source
Procedure: as §1

[4] = target: T1, Human-TNFR2-His (manufacturer: SINO, …); assay: ELISA: Human-TNFR2-His coated (0.3 µg/mL), antibody titrated, goat anti-human IgG Fc detection, OD450 (Example 2)
Procedure: Human-TNFR2-His (manufacturer: SINO, CAT: 10417-H08H, LOT: LC15NO0412) was diluted to 0.3 μg/mL with a coating solution (1×PBS, pH7.4), and coated into a 96-well ELISA plate at 100 μL/well overnight at 4° C. The coating solution was poured off. Each well was washed with 1×PBST at 300 μL, washed 4 times with a plate washer, and patted dry on a flat paper. It was blocked with 3% skim milk powder at 300 μL/well, and incubated at 37° C. for 1 h. The blocking solution was poured off, washed 4 times with a plate washer, and patted dry on a flat paper. Negative control and positive control were set up. […] The positive control and antibody were diluted to 10 μg/mL with 3% skim milk powder as the starting concentration, and then diluted by 3-fold gradient (11 gradients in total). A blank well was set up and only the diluent was added. It was incubated at 37° C. for 1 h at 100 μL/well. The liquid in the well was discarded, washed 4 times with a plate washer, and patted dry on a flat paper. Goat anti-human IgG Fc was diluted with 3% skim milk powder at 1:20000, and incubated at 37° C. for 1 h at 100 μL/well. It was washed 6 times with a plate washer, and patted dry on a flat paper. TMB color developing solution was added at 100 μL/well, and wrapped with aluminum foil. Color development was performed at 37° C. in the dark for 8 min. Termination solution 1M HCl was added to terminate the color development reaction at 100 μL/well. Readings were taken at 450 nm on an ELISA reader.

[5] = target: T1, Human-TNFR2-His (manufacturer: SINO, …); assay: flow cytometry, bridging: CHOK1-18.2 cells (human Claudin18.2) + 150 nM antibody + human TNFR2-His, anti-His FITC detection
Procedure: Human TNFR2 protein (SINO, CAT: 10417-H08H) was sequentially added into 96-well plate with 100 μL/well, and after mixing, the 96-well plate was incubated at 4° C. for 1 h. Pre-cooled dilution was added and washed once, centrifuged (3000 rpm, 3 min), and the supernatant was discarded, and the cells were harvested. Fluorescent secondary antibody Anti-6X-his tag antibody (FITC) (manufacturer: abcam, Cat. No.: ab1206, Lot No.: GR3420599-3) was taken and diluted at the used concentration of 1:500. 100 μL of dilution was added to the blank control group, and 100 μL of fluorescent secondary antibody dilution was added to the rest of the sample groups respectively. After incubation for 0.5 h at room temperature and 4° C. protected from light, PBS was added to wash and centrifuged (3000 rpm, 3 min) twice. After discarding the supernatant, 80 μL of the dilution was added and resuspended.

Binder | binding result [1] | EC50 (read off the curve) [2] | EC50 (read off the curve) [3] | other results
TB-C2 (bispecific antibody, human IgG4 S228P, kappa, also called antibody TB-C2) light: DIVMTQSPATLSVTPGDRVSLSCRASQSISDYLHWYQQKSHESPRLLIKYASQSISGIPSRFSGSGSGSDFTLSINSVEPEDVGVYYCQNGHSFPLTFGAGTKLELKRTVAAPSVFIFPPSDEQLKSGTASVVCLLNNFYPREAKVQWKVDNALQSGNSQESVTEQDSKDSTYSLSSTLTLSKADYEKHKVYACEVTHQGLSSPVTKSFNRGEC heavy: not shown |  |  | ~2 nM | binding result [4]: binds
TB-D2 (bispecific antibody, human IgG4 S228P, kappa, also called antibody TB-D2) light: DIVMTQSPATLSVTPGDRVSLSCRASQSISDYLHWYQQKSHESPRLLIKYASQSISGIPSRFSGSGSGSDFTLSINSVEPEDVGVYYCQNGHSFPLTFGAGTKLELKRTVAAPSVFIFPPSDEQLKSGTASVVCLLNNFYPREAKVQWKVDNALQSGNSQESVTEQDSKDSTYSLSSTLTLSKADYEKHKVYACEVTHQGLSSPVTKSFNRGEC heavy: not shown |  |  | ~1 nM | binding result [4]: binds
TC-B2 (bispecific antibody, human IgG1, kappa) light: EIVMTQSPPTLSLSPGERVTLSCKSSQSLLNSGNQKNYLTWYQQKPGQAPRLLIYWASTRESSIPARFSGSGSGTDFTLTISSLQPEDFAVYYCQNNYIYPLTFGGGTKLELKRTVAAPSVFIFPPSDEQLKSGTASVVCLLNNFYPREAKVQWKVDNALQSGNSQESVTEQDSKDSTYSLSSTLTLSKADYEKHKVYACEVTHQGLSSPVTKSFNRGEC heavy: not shown |  |  |  | E1 Mean FITC-A [5]: 139000
Positive Control (antibody, V domains shown) VH: QVQLQQSGAELVKPGASVKLSCKASGYTFTNYDINWVRQRPEQGLEWIGWIFPGDGSTQYNEKFKGKATLTTDTSSSTAYMQLSRLTSEDSAVYFCARQTTATWFAYWGQGTLVTVSA VL: DIVMTQSPATLSVTPGDRVSLSCRASQSISDYLHWYQQKSHESPRLLIKYASQSISGIPSRFSGSGSGSDFTLSINSVEPEDVGVYYCQNGHSFPLTFGAGTKLELK |  | ~0.3 nM | ~0.2 nM | 

Second part, led by results:

binding result [1] | EC50 (read off the curve) [2] | EC50 (read off the curve) [3] | Binder | other results
binds |  |  | TB-G (bispecific antibody, human IgG1, kappa, also called antibody TB-G) light: DIVMTQSPATLSVTPGDRVSLSCRASQSISDYLHWYQQKSHESPRLLIKYASQSISGIPSRFSGSGSGSDFTLSINSVEPEDVGVYYCQNGHSFPLTFGAGTKLELKRTVAAPSVFIFPPSDEQLKSGTASVVCLLNNFYPREAKVQWKVDNALQSGNSQESVTEQDSKDSTYSLSSTLTLSKADYEKHKVYACEVTHQGLSSPVTKSFNRGECGGGGSGGGGSEVQLVESGGGLVQPGGSLRLSCAASGSRLDYYAVAWFRQAPGKEREEVSCITYSGGSTNYAESVKGRFTISRDNSKNTLYLQMNSLRAEDTAVYYCTTEPYGSSCPLSGYDTWGQGTLVTVSS heavy: not shown | 
binds | ~0.2 µg/mL |  | TB-F (bispecific antibody, human IgG1, kappa, also called antibody TB-F) light: EVQLVQSGAEVKKPGATVKISCKVSGYSITDYLLHWVQQAPGKCLEWMGWIDPEDAKTKYGQKFQSRVTITADTSTDTAYMELSSLRSEDTAVYYCAANSGTGTMDAWGQGTLVTVSSGGGGSGGGGSGGGGSDIVMTQSPATLSVSPGERATLSCKASQNVGSNVDWYQQKPGQSPRVLIYKASIRYTGIPARFSGSGSGTEFTLTISILQSEDFAVYFCMQSKSYPITFGCGTKLEIKGGGGSGGGGSGGGGSDIVMTQSPATLSVTPGDRVSLSCRASQSISDYLHWYQQKSHESPRLLIKYASQSISGIPSRFSGSGSGSDFTLSINSVEPEDVGVYYCQNGHSFPLTFGAGTKLELKRTVAAPSVFIFPPSDEQLKSGTASVVCLLNNFYPREAKVQWKVDNALQSGNSQESVTEQDSKDSTYSLSSTLTLSKADYEKHKVYACEVTHQGLSSPVTKSFNRGEC heavy: not shown | 
binds | ~0.2 µg/mL |  | TB-H (bispecific antibody, human IgG1, kappa, also called antibody TB-H) light: EVQLVESGGGLVQPGGSLRLSCAASGSRLDYYAVAWFRQAPGKEREEVSCITYSGGSTNYAESVKGRFTISRDNSKNTLYLQMNSLRAEDTAVYYCTTEPYGSSCPLSGYDTWGQGTLVTVSSGGGGSGGGGSGGGGSDIVMTQSPATLSVTPGDRVSLSCRASQSISDYLHWYQQKSHESPRLLIKYASQSISGIPSRFSGSGSGSDFTLSINSVEPEDVGVYYCQNGHSFPLTFGAGTKLELKRTVAAPSVFIFPPSDEQLKSGTASVVCLLNNFYPREAKVQWKVDNALQSGNSQESVTEQDSKDSTYSLSSTLTLSKADYEKHKVYACEVTHQGLSSPVTKSFNRGEC heavy: not shown | 

Source: US20260055188A1 (SHENGHE CHINA BIOPHARMACEUTICAL, published 2026)
